According to patent publication US20140271640A1, “FGF-10 Complexes” (Permeon Biologics, Inc., priority 2012, published 2014):
Changes are numbered by the printed parent chain. Names may count otherwise.

Tests used:
[1] = test system: SKOV-3 ovarian cancer cells; experiment: SKOV-3 cell viability MTS assay with endosome escape agent; assay type: cell-based, human; settings: 1 uM protein, 4 hours, with endosome escape agent (strongest at 13.3 nM)
Experimental: SKOV-3 ovarian cancer cells were plated in a 96-well format and grown overnight. Cells were incubated with test articles: a) 1 uM of p16, b) 1 uM of +36GFP-p16, c) 1 uM of FGF10-p16 or d) no treatment in the presence of various concentrations of an endosome escape agent such as PFO (five 3× dilution starting from 40 nM; exemplary endosomal escape agents, such as PFO or PFO-like agents, are disclosed in WO2012/094653) for 4 hours in serum-free medium. One group of cells, called “untreated cells” received no test article treatment and no PFO treatment. After incubation, the media from all cell wells was aspirated and fresh complete medium was added for 3 hours. Cell viability was assessed using an MTS assay. Results are reported as number of viable cells as % relative to the untreated cells.
The CDK4/6 inhibitor PD-0332991 was used as positive control for inhibition of cell proliferation in the p16 deficient SKOV-3 cell line (FIG. 22).

[2] = test system: HepG2 (hepatoma), Hela cells, SW626 cells (ovarian); experiment: Cell penetration of p16 fusion proteins, flow cytometry; assay type: cell-based; settings: 2 uM, overnight
Experimental: On the day prior to the assay, HepG2 (hepatoma), Hela cells, and 10^6 SW626 cells (ovarian) were plated in each well of a 6-well plate and incubated in the 37° C. CO2 incubator. The cells were washed once with PBS and then were replenished with 2 mL of growth media containing 2 uM of p16, +36GFP-p16 or FGF10-p16 proteins and were incubated overnight in the 37° C. CO2 incubator. The cells were then washed once with PBS and detached with 0.25% trypsin/EDTA. The cells were fixed for 10 minutes with 1 mL 4% formaldehyde and permeabilized for 5 minutes with 0.5 mL 0.4% saponin. Then 2.5 uL of 1 mg/mL FITC labeled chicken polyclonal anti-myc tag antibody (Abcam #1394) was added to all the cells and incubated at 4° C. in the dark for 2 hours, except for cells treated with +36GFP-p16 (GFP itself was used for detection). The cells were washed twice with ice cold PBS and were analyzed using a BD Accuri™ C6 flow cytometer.

FGFR-1b = FGFR-1b (Homo sapiens, UniProt P11362); settings: cited from earlier work
FGFR-1b, sequence (P11362 22-822 isoform P11362-19 limits assumed): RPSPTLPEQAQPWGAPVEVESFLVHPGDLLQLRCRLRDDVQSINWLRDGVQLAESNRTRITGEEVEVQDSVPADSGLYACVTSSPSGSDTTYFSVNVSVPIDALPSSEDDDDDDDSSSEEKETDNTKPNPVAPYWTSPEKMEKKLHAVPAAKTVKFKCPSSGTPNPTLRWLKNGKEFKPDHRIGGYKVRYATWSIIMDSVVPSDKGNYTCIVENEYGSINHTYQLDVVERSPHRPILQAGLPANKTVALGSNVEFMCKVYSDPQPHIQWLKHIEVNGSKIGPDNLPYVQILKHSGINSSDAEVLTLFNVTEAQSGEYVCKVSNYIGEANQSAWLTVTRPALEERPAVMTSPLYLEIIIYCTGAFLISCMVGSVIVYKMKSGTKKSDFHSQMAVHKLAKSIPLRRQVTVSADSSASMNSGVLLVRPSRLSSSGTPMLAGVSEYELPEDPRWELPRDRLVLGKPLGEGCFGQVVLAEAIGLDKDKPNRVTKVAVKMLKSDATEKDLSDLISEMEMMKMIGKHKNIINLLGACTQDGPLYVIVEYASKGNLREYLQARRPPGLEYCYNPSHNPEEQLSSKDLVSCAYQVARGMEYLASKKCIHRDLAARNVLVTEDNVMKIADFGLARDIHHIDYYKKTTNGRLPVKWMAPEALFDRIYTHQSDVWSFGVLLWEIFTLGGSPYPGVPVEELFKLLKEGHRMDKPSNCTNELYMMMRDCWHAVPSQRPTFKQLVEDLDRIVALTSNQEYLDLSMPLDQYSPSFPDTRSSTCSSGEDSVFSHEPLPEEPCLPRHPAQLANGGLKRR

FGFR2b receptor = FGFR2b receptor (Homo sapiens, UniProt P21802); settings: relative to wild-type FGF10; cited from earlier work
FGFR2b receptor, sequence (P21802 22-822 isoform P21802-3 limits assumed): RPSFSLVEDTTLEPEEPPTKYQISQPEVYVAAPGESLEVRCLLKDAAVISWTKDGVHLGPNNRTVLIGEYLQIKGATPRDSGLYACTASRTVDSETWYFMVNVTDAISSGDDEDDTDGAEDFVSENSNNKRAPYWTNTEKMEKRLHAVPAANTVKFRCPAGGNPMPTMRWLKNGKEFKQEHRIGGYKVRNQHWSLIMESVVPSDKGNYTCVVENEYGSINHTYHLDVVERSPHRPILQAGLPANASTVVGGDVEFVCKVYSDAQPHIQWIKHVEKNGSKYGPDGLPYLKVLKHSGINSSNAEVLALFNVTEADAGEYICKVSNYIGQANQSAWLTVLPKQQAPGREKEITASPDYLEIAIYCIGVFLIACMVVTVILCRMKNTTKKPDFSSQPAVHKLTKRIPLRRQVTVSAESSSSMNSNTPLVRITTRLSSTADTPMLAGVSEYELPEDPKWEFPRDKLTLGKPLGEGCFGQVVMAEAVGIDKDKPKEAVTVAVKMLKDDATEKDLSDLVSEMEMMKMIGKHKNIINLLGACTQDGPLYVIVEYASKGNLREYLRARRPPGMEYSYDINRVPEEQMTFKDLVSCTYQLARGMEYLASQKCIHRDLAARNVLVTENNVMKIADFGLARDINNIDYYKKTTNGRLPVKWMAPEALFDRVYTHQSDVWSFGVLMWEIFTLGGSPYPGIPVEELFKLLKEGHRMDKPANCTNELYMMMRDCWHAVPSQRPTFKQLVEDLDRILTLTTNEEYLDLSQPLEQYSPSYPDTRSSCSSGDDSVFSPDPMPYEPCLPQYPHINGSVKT

[3] = mouse, in vivo, iv
Hela cells = experiment: Cell penetrating activity of FGF10 domain, anti-myc flow cytometry; assay type: cell-based; settings: 1 uM, 20 minutes
Experimental: On the day prior to the assay, 10^6 Hela cells were plated in each well of a 6-well plate and incubated in the 37° C. CO2 incubator overnight. The cells were washed once with PBS and then were replenished with 1 mL of serum-free DEMEM (A) or media containing 1 uM of the FGF10 domain construct FGF10-myc (B, C, and D) and were incubated for 20 minutes in the 37° C. CO2 incubator. The cells were then washed three times with ice-cold PBS. For (C) and (D), cells were treated with 0.25% trypsin/EDTA and washed three times with PBS. The cells in (D) were fixed for 10 minutes with 1 mL 4% formaldehyde and permealized for 5 minutes with 0.2% saponin. Then 10 uL of 0.1 mg/mL FITC labeled chicken polyclonal anti-myc tag antibody (Abcam #1394) was added to all the cells and incubated at 4° C. in the dark for 2 hours. The cells were washed three times with ice cold PBS. Cells in (A) and (B) were detached with 1 mL 10 mM EDTA. Cells were analyzed using a BD Accuri™ C6 flow cytometer.

[4] = mouse, in vivo
[5] = Microautoradiography analysis (MARG) of cellular distribution in liver and kidney; assay type: in vivo, mice
Experimental: To obtain specific cell-type uptake information in select organs, microautoradiography analysis was performed on selected organs collected at various time points. For microautoradiography analysis (MARG), animals were anesthetized and blood collected, as described above. Tissue samples are trimmed to be approximately 0.5 cm^2, placed into cryosectioning embedding media on a cryosectioning sample holder, and frozen in isopentane that is cooled with liquid nitrogen. Frozen samples were stored in liquid nitrogen until analysis by MARG. For analysis, tissues were cryosectioned at 5 μm under darkroom conditions, and collected onto glass slides that are pre-coated with photographic emulsion (Kodak NTB photographic emulsion). Slides were placed in sealed light-safe slide boxes and allowed to expose the photographic emulsion for 7 days before being developed, fixed and stained with hematoxylin and eosin. All slides were examined for cellular localization using light microscopy.

[6] = Stability of Hisx6-FGF10-Myc following freeze/thaw cycles (A280, analytical SEC); assay type: physicochemical; settings: after two (multiple) freeze/thaw cycles
Experimental: The stability of this cell penetrating domain of FGF10 was evaluated following multiple freeze/thaw cycles. To do this, protein concentration measurements and analytical size exclusion chromatography were carried out comparing protein which had undergone zero, one, or two freeze/thaw cycles. […] The study indicated about 75% stability of this protein after two freeze/thaw cycles.
Purified protein was subjected to the indicated number of freeze/thaw cycles (each freeze/thaw cycle consisted of snap-freezing the protein in liquid nitrogen, placing it at −80° C. for a minimum of two hours, and then thawing it on ice) and analyzed by size exclusion chromatography. After each thaw, the protein was subjected to 20,000×g centrifugation to remove any precipitation. The protein concentration of each sample was measured by A280, considering the extinction coefficient (24540) and molecular weight (19.57 kDa). In each case 40 μL of the protein was applied to a Superdex 75 10/300 GL column (GE Healthcare). The column running buffer was the same as the protein storage buffer (20 mM Hepes, pH 7.5, 0.5 M NaCl).

B1: p16: human p16Ink4A tumor suppressor protein without penetrating polypeptide (protein, listed as Homo sapiens)
chain: MEPAAGSSMEPSADWLATAAARGRVEEVRALLEAGALPNAPNSYGRRPIQVMMMGSARVAELLLLHGAEPNCADPATLTRPVHDAAREGFLDTLVVLHRAGARLDVRDAWGRLPVDLAEELGHRDVARYLRAAAGGTRGSNHARIDAAEGPSDIPD
- number of viable cells / cell proliferation [1]: failed to block cell proliferation at levels higher than the background toxicity of an endosomal escape agent
- cell penetration [2]: does not

B2: Fibroblast growth factor 10 (FGF-10): native FGF family member, ligand of FGFR-2b (protein, UniProt O15520 38-208, looked up)
Fibroblast growth factor 10: QALGQDMVSPEATNSSSSSFSSPSSAGRHVRSYNHLQGDVRWRKLFSFTKYFLKIEKNGKVSGTKKENCPYSILEITSVEIGVVAVKAINSNYYLAMNKKGKLYGSKEFNNDCKLKERIEENGYNTYASFNWQHNGRQMYVALNGKGAPRRGQKTRRKNTSAHFLPMVVHS
- binding affinity to FGFR-1b as % of binding affinity to FGFR-2b (FGFR-1b): about 10%

B3: FGF10-p16: fusion protein of FGF10 domain (SEQ ID NO: 2), (G4S)2 linker and human p16 (protein)
chain: MEQKLISEEDLGSGRHVRSYNHLQGDVRWRKLFSFTKYFLKIEKNGKVSGTKKENCPYSILEITSVEIGVVAVKAINSNYYLAMNKKGKLYGSKEFNNDCKLKERIEENGYNTYASFNWQHNGRQMYVALNGKGAPRRGQKTRRKNTSAHFLPMVVHSGHGGGGSGGGGSMEPAAGSSMEPSADWLATAAARGRVEEVRALLEAGALPNAPNSYGRRPIQVMMMGSARVAELLLLHGAEPNCADPATLTRPVHDAAREGFLDTLVVLHRAGARLDVRDAWGRLPVDLAEELGHRDVARYLRAAAGGTRGSNHARIDAAEGPSDIPDGHGHHHHHH
- number of viable cells / cell proliferation [1]: significant reduction in the number of viable cells
- treated cells stained positive ([2]; trypsin detached): ~30%

B4: FGF10 E158K/K195A: FGF-10 variant or fragment having two substitutions E158K/K195A (protein)
chain: GRHVRSYNHLQGDVRWRKLFSFTKYFLKIEKNGKVSGTKKENCPYSILEITSVEIGVVAVKAINSNYYLAMNKKGKLYGSKEFNNDCKLKERIEKNGYNTYASFNWQHNGRQMYVALNGKGAPRRGQKTRRANTSAHFLPMVVHS
- decrease in binding to the FGFR2b receptor (factor / fold) (FGFR2b receptor): approximately 4

B5: FGF10 R78A: FGF-10 variant or fragment having one substitution R78A (protein)
chain: B4 chain with R15A, K95E, A132K
- decrease in binding to the FGFR2b receptor (factor / fold) (FGFR2b receptor): approximately 4

B6: FGF10: Hisx6- and Myc-tagged domain of human FGF10 with the amino acid sequence of SEQ ID NO: 2 (protein, listed as Homo sapiens)
chain: B4 chain with K95E, A132K
modifications: His6 and Myc tags
- travel beyond the injection site [3]: able to travel significantly beyond the area of the injection site
- cells with protein present on the cell membrane (Hela cells; no trypsin): 98.8%
- cells stained positive after trypsin treatment (internalized protein) (Hela cells; trypsin, fixed and permeabilized): almost all the cells stained positive
- partitioning between plasma compartment and blood cell compartment [4]: favor the plasma compartment over the blood cell compartment
- plasma concentration compared with Tat-TK or +36GFP [4]: higher concentrations in plasma 1 hour post-injection than Tat-TK or +36GFP
- cellular distribution in kidney (MARG) ([5]; kidney): uniformly distributed throughout the kidney
- cellular distribution in liver (MARG) ([5]; liver): uniformly distributed throughout the liver tissue including in hepatocytes
- stability after freeze/thaw cycles ([6]; listed as His6-FGF10-myc): 75%
- stability after freeze/thaw cycles ([6]; listed as Hisx6-FGF10-Myc): about 75%
